From US20190359693A1

Experiments:
[1] = target: recombinant HA of H1N1 A/Brisbane/59/07 (influenza A virus); assay: biolayer interferometry (Octet), steady-state fit, geometric mean, pH 7.4
[2] = target: recombinant HA of B/Brisbane/60/08 (Victoria) (influenza B virus); assay: as above
[3] = target: recombinant HA of H7N9 A/Hangzhou/1/2013 (influenza A virus); assay: as above
[4] = target: recombinant HA of H3N2 A/HK/1/68-MA (influenza A virus); assay: as above
[5] = target: recombinant HA of H3N2 A/Wisconsin/67/05 (influenza A virus); assay: as above
[6] = target: recombinant HA of H7N3 A/NIBRG/60 (A/mallard/NL/12/00) (influenza A virus); assay: as above
[7] = target: hemagglutinin (HA) of influenza virus H5N1 A/Vietnam/1194/04 (influenza A virus); assay: cell-based or functional assay
[8] = target: hemagglutinin (HA) of influenza virus H3N2 A/Perth/16/09 (influenza A virus); assay: cell-based or functional assay
[9] = target: hemagglutinin (HA) of influenza virus H8N2 A/Env/MPJ1258/09 (influenza A virus); assay: cell-based or functional assay
[10] = target: hemagglutinin (HA) of influenza virus H4N6 A/Great Cormorant/MPB1683/06 (influenza A virus); assay: cell-based or functional assay
[11] = target: hemagglutinin (HA) of influenza virus H14N5 A/Mallard/Astrakhan/263/1982 (influenza A virus); assay: cell-based or functional assay
[12] = target: hemagglutinin (HA) of influenza virus H2N2 A/AnnArbor/23/57 (influenza A virus); assay: cell-based or functional assay
[13] = target: hemagglutinin (HA) of influenza virus H9N2 A/Ck/HK/SSP176/09 (influenza A virus); assay: cell-based or functional assay
[14] = target: hemagglutinin (HA) of influenza virus H3N2 A/Fukui/45/04 (influenza A virus); assay: cell-based or functional assay
[15] = target: hemagglutinin (HA) of influenza virus H9N2 A/HK/466419/09 (influenza A virus); assay: cell-based or functional assay
[16] = target: hemagglutinin (HA) of influenza virus H1N1 A/Mississippi/03/01 274H (influenza A virus); assay: cell-based or functional assay
[17] = target: hemagglutinin (HA) of influenza virus B/Florida/04/06 (Yamagata) (influenza B virus); assay: cell-based or functional assay
[18] = target: hemagglutinin (HA) of influenza virus H2N2 A/Guiyang/1/57 (influenza A virus); assay: cell-based or functional assay
[19] = target: hemagglutinin (HA) of influenza virus H7N7 A/PR8 H7N7-NY (influenza A virus); assay: cell-based or functional assay
[20] = target: hemagglutinin (HA) of influenza virus H1N1 A/HK/54/98 (influenza A virus); assay: cell-based or functional assay
[21] = target: hemagglutinin (HA) of influenza virus H7N9 A/Shanghai/2/13 (influenza A virus); assay: cell-based or functional assay
[22] = target: hemagglutinin (HA) of influenza virus H1N1 A/Solomon Islands/3/2006 (IVR 145) (influenza A virus); assay: cell-based or functional assay
[23] = target: hemagglutinin (HA) of influenza virus H10N9 A/Northern Shoveler/MPE2531/08 (influenza A virus); assay: cell-based or functional assay
[24] = target: hemagglutinin (HA) of influenza virus H1N1 A/Puerto Rico/8/34-MA (influenza A virus); assay: cell-based or functional assay
[25] = target: hemagglutinin (HA) of influenza virus B/Malaysia/2506/04 (Victoria) (influenza B virus); assay: cell-based or functional assay
[26] = target: hemagglutinin (HA) of influenza virus H7N3 A/NIBRG/60 (A/mallard/Netherlands/12/00) (influenza A virus); assay: cell-based or functional assay
[27] = target: hemagglutinin (HA) of influenza virus H4N1 A/Northern Pintail/MPB1368/06 (influenza A virus); assay: cell-based or functional assay
[28] = target: hemagglutinin (HA) of influenza virus H3N2 A/Wisconsin/67/05 (influenza A virus); assay: cell-based or functional assay
[29] = target: hemagglutinin (HA) of influenza virus H12N5 A/Env/MPK659/09 (influenza A virus); assay: cell-based or functional assay
[30] = target: hemagglutinin (HA) of influenza virus H1N1 A/Christchurch/16/10 (influenza A virus); assay: cell-based or functional assay
[31] = target: hemagglutinin (HA) of influenza virus B/Lee/40 (Old) (influenza B virus) (UniProt P03460); assay: cell-based or functional assay
[32] = target: hemagglutinin (HA) of influenza virus H1N1 A/California/07/09 (influenza A virus); assay: cell-based or functional assay
[33] = target: hemagglutinin (HA) of influenza virus H3N2 A/Aichi/2/68 (influenza A virus) (UniProt P03437); assay: cell-based or functional assay
[34] = target: hemagglutinin (HA) of influenza virus H7N9 A/Anhui/1/13 (influenza A virus); assay: cell-based or functional assay
[35] = target: hemagglutinin (HA) of influenza virus H9N2 A/Great Cormorant/MP2934/04 (influenza A virus); assay: cell-based or functional assay
[36] = target: hemagglutinin (HA) of influenza virus H1N1 A/WSN/33 (influenza A virus) (UniProt P03454); assay: cell-based or functional assay
[37] = target: hemagglutinin (HA) of influenza virus H5N1 A/PR8 H5N1 HK97 (influenza A virus); assay: cell-based or functional assay
[38] = target: hemagglutinin (HA) of influenza virus B/Brisbane/60/08 (Victoria) (influenza B virus); assay: cell-based or functional assay
[39] = target: hemagglutinin (HA) of influenza virus H1N1 A/New Caledonia/20/99 (influenza A virus); assay: cell-based or functional assay
[40] = target: hemagglutinin (HA) of influenza virus H5N2 A/Eurasian Wigeon/MPF461/07 (influenza A virus); assay: cell-based or functional assay
[41] = target: hemagglutinin (HA) of influenza B/Florida/04/06 (Yamagata) (influenza B virus); assay: cell-based or functional assay
[42] = target: hemagglutinin (HA) of influenza virus H4 A/WF/HK/MPA892/06 (influenza A virus); assay: cell-based or functional assay

B1: MD2407 (bispecific antibody)
chain: EVQLVESGGGLVQPGGSLRLSCAVSISIFDIYAMDWYRQAPGKQRDLVATSFRDGSTNYADSVKGRFTISRDNAKNTLYLQMNSLKPEDTAVYLCHVSLYRDPLGVAGGMGVYWGKGALVTVSSGGGGSGGGGSEVQLVESGGGLVQAGGSLKLSCAASGRTYAMGWFRQAPGKEREFVAHINALGTRTYYSDSVKGRFTISRDNAKNTEYLEMNNLKPEDTAVYYCTAQGQWRAAPVAVAAEYEFWGQGTQVTVSSGGGGSGGGGSEVQLVESGGGLVQPGGSLRLSCAATGFTLENKAIGWFRQTPGSEREGVLCISKSGSWTYYTDSMRGRFTISRDNAENTVYLQMDSLKPEDTAVYYCATTTAGGGLCWDGTTFSRLASSWGQGTQVTVSSGGGGSGGGGSEVQLVESGGGLVQPGGSLKLSCAASGFTFSTSWMYWLRQAPGKGLEWVSVINTDGGTYYADSVKDRFTISRDNAKDTLYLQMSSLKSEDTAVYYCAKDWGGPEPTRGQGTQVTVSS
**Q.** What does the source list for B1?
**A.** Kd [1]: 2.8 nM; Kd [2]: 3.1 nM; Kd [3]: 1.7 nM; Kd [4]: 2.2 nM; Kd [5]: 0.5 nM; Kd [6]: 1.2 nM; average neutralization titer [7]: 9.2 nM; average neutralization titer [8]: 8.1 nM; average neutralization titer [9]: 8.8 nM; average neutralization titer [10]: 4.8 nM; average neutralization titer [11]: 19.2 nM; average neutralization titer [12]: 101 nM; average neutralization titer [13]: 23 nM; average neutralization titer [14]: 19.2 nM; average neutralization titer [15]: 53.9 nM; average neutralization titer [16]: 4.8 nM; average neutralization titer [17]: 7.6 nM; average neutralization titer [18]: 126 nM; average neutralization titer [19]: 22.3 nM; average neutralization titer [20]: 10.3 nM; average neutralization titer [21]: 54.2 nM; average neutralization titer [22]: 5.4 nM; average neutralization titer [23]: 35 nM; average neutralization titer [24]: 7.3 nM; average neutralization titer [25]: 9.2 nM; average neutralization titer [26]: 13.8 nM; average neutralization titer [27]: 8.2 nM; average neutralization titer [28]: 19.1 nM; average neutralization titer [29]: > 1000 nM; average neutralization titer [30]: 1.3 nM; average neutralization titer [31]: 18.4 nM; average neutralization titer [32]: 3.4 nM; average neutralization titer [33]: 9.9 nM; average neutralization titer [34]: 64.6 nM; average neutralization titer [35]: 19.6 nM; average neutralization titer [36]: 4.8 nM; average neutralization titer [37]: 3.6 nM; average neutralization titer [38]: 4.1 nM; average neutralization titer [39]: 5.7 nM; average neutralization titer [40]: 16.6 nM; ADCC induction (EC50 grade, FcγRIIIa reporter bioassay) [41]: > 0.5 µg/mL; average neutralization titer [42]: 6.8 nM
